Reference: paper PMC6959147 (2019)

Target: recombinant human PD-L1, Fc-tagged (rhPD-L1-Fc) (human, UniProt Q9NZQ7 19-238)
Assay: FACS

Sequence of recombinant human PD-L1, Fc-tagged (rhPD-L1-Fc) (Q9NZQ7 19-238): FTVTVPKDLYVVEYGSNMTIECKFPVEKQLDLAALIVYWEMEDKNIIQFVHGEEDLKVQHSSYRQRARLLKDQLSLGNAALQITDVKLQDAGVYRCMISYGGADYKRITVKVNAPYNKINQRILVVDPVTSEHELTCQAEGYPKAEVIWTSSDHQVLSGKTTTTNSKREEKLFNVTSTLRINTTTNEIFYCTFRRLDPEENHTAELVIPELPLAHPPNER

Kd [nM] | Binder
0.73 | scFv-yeast clone 10_12 (scFv, V domains shown) VH: not shown VL: NFMLTQPHSVSESPGKTITISCTRSSGSIAGNYVQWYQQRPGSAPIIVIYEDNQRPSGVPDRFSGSIDSSSNSASLTISRLKTEDEADYYCQSYEASNVVFGGGTKLTVL
4.55 | wild type anti-PD-L1 scFv PD-L1_1 displayed on yeast (scFv, V domains shown) VH: not shown VL: NFMLTQPHSVSESPGKTITISCTRSSGSIAGNYVQWYQQRPGSAPIIVIYEDNQRPSGVPDRFSGSIDSSSNSASLTISRLKTEDEADYYCQSYEASNVVFGGGTKLTVL
0.5 | scFv-yeast clone 10_3 (scFv, V domains shown) VH: not shown VL: NFMLTQPHSVSESPGKTITISCTRSSGSIAGNYVQWYQQRPGSAPIIVIYEDNQRPSGVPDRFSGSIDSSSNSASLTISRLKTEDEADYYCQSYEASNVVFGGGTKLTVL
0.68 | scFv-yeast clone 3_7 (scFv, V domains shown) VH: not shown VL: NFMLTQPHSVSESPGKTITISCTRSSGSIAGNYVQWYQQRPGSAPIIVIYEDNQRPSGVPDRFSGSIDSSSNSASLTISRLKTEDEADYYCQSYEASNVVFGGGTKLTVL
0.46 | scFv-yeast clone 3_17 (scFv, V domains shown) VH: not shown VL: NFMLTQPHSVSESPGKTITISCTRSSGSIAGNYVQWYQQRPGSAPIIVIYEDNQRPSGVPDRFSGSIDSSSNSASLTISRLKTEDEADYYCQSYEASNVVFGGGTKLTVL
0.6 | scFv-yeast clone 3_3 (scFv, V domains shown) VH: not shown VL: NFMLTQPHSVSESPGKTITISCTRSSGSIAGNYVQWYQQRPGSAPIIVIYEDNQRPSGVPDRFSGSIDSSSNSASLTISRLKTEDEADYYCQSYEASNVVFGGGTKLTVL
0.58 | scFv-yeast clone 3_14 (scFv, V domains shown) VH: not shown VL: NFMLTQPHSVSESPGKTITISCTRSSGSIAGNYVQWYQQRPGSAPIIVIYEDNQRPSGVPDRFSGSIDSSSNSASLTISRLKTEDEADYYCQSYEASNVVFGGGTKLTVL

Target: PD-L1 expressed in its native conformation on activated human PBMCs (human (endogenous in hPBMCs), UniProt Q9NZQ7 19-290)
Assay: FACS

Sequence of PD-L1 expressed in its native conformation on activated human PBMCs (Q9NZQ7 19-290): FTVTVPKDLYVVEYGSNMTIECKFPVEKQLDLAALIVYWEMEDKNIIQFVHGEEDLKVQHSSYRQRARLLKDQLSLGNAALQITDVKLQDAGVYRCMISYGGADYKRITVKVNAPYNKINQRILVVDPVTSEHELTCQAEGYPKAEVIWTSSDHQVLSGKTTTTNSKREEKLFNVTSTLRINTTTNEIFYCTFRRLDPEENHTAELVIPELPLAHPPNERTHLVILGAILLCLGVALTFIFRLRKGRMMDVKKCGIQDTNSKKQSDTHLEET

Kd [nM] | Binder
2 | mAb 10_3 (IgG4 converted from scFv 10_3) (antibody, V domains shown) VH: not shown VL: NFMLTQPHSVSESPGKTITISCTRSSGSIAGNYVQWYQQRPGSAPIIVIYEDNQRPSGVPDRFSGSIDSSSNSASLTISRLKTEDEADYYCQSYEASNVVFGGGTKLTVL
